T1: mouse FcRn (Sino Biological Cat. No. CT029-M08H) (mouse, UniProt Q61559 22-297; P01887 21-119)
T1 construct: Bought protein, captured on an anti-histidine chip
T1 sequence (looked up): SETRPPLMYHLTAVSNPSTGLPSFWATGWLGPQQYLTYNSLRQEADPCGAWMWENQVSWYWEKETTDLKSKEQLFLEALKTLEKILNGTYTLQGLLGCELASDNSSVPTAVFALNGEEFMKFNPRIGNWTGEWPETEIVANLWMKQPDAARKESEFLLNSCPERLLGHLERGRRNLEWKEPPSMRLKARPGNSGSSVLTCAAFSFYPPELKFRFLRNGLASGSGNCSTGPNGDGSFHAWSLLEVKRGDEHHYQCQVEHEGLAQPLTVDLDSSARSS
T1 sequence (b2m, looked up): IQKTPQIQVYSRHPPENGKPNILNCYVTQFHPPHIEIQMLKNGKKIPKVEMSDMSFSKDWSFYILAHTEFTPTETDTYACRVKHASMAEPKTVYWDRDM


Assays:
[1] = molecular target: T2, human FcRn (R&D Systems Cat. No. 8639-Fc) (human, UniProt P55899 24-297; P61769 21-119); experiment: SPR, FcRn captured; Expt 2
[2] = molecular target: T3, Human C1q (Sigma Cat. No. 20476), HRP-labelled (human, UniProt P02745 23-245; P02746 28-253; P02747 29-245); experiment: ELISA, antibody coated, HRP-C1q; Expt 2, buffer alone 0.051
T3 construct: Coupled to horse-radish peroxidase with Lightning-Link kit; also called HRP-labelled C1q

[3] = molecular target: T4, cynomolgus monkey FcRn (Sino Biological Cat. No. CT031-C08H) (cynomolgus monkey, UniProt Q8SPV9 24-297; Q8SPW0 21-119); experiment: SPR, FcRn captured via anti-His, pH 6.0;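 further: SPR binding signal relative to the reference cell, corrected by subtracting the response of a blank sample of running buffer alone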
T4 construct: Bought protein, captured on an anti-histidine chip; also called cynomolgus FcRn

[4] = molecular target: T1, mouse FcRn (Sino Biological Cat. No. …); experiment: SPR, FcRn captured via anti-His, pH 6.0;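 further: SPR binding signal relative to the reference cell, corrected by subtracting the response of a blank sample of running buffer alone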
[5] = molecular target: T2, human FcRn (R&D Systems Cat. No. …); experiment: SPR, FcRn captured via anti-His, pH 6.0;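 further: SPR binding signal relative to the reference cell, corrected by subtracting the response of a blank sample of running buffer alone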
[6] = molecular target: T3, Human C1q (Sigma Cat. No. 20476), …; experiment: ELISA, antibody coated, HRP-C1q; Expt 1, buffer alone 0.053
[7] = molecular target: T3, Human C1q (Sigma Cat. No. 20476), …; experiment: ELISA, antibody coated, HRP-C1q; Expt 1, buffer alone 0.061
[8] = molecular target: T2, human FcRn (R&D Systems Cat. No. …); experiment: SPR, FcRn captured; Expt 3
[9] = molecular target: T3, Human C1q (Sigma Cat. No. 20476), …; experiment: ELISA, antibody coated, HRP-C1q; Expt 2, buffer alone 0.091
[10] = molecular target: T3, Human C1q (Sigma Cat. No. 20476), …; experiment: ELISA, antibody coated, HRP-C1q; Expt 3, buffer alone 0.102
[11] = molecular target: T2, human FcRn (R&D Systems Cat. No. …); experiment: SPR, FcRn captured; Mean
[12] = molecular target: T2, human FcRn (R&D Systems Cat. No. …); experiment: SPR, FcRn captured; Expt 1
[13] = molecular target: T5, C-terminus biotinylated human FcRn attached to Streptavidin-SmBiT (FcRn-SAv-SmBiT) (human, UniProt P55899 24-297; P61769 21-119, limits assumed, C-terminus biotinylated (AviTag), attached to Streptavidin-SmBiT); experiment: NanoBiT FcRn competition immunoassay, competitor Tracer-LgBiT human IgG, pH 6.0
T5 construct: Kit reagent; also called hFcRn-AviTag

Binder | Corrected and normalised response (% of wild-type reference) [1] | Mean Absorbance [2] | Corrected response (RU) [3] | Corrected response (RU) [4] | Corrected response (RU) [5] | Mean Absorbance [6] | Mean Absorbance [7] | Corrected and normalised response (% of wild-type reference) [8] | Mean Absorbance [9] | Mean Absorbance [10] | Corrected and normalised response (% of wild-type reference) [11] | Corrected and normalised response (% of wild-type reference) [12] | Mean binding activity (% of wild-type reference) [13]
anti-CD20 (rituximab) human IgG1 wild-type reference (antibody, 2-1 and 10.0 are separate preparations of the same antibody; also called 2-1; 10.0; copies: 2 + 2) heavy: not shown light: QIVLSQSPAILSASPGEKVTMTCRASSSVSYIHWFQQKPGSSPKPWIYATSNLASGVPVRFSGSGSGTSYSLTISRVEAEDAATYYCQQWTSNPPTFGGGTKLEIKRTVAAPSVFIFPPSDEQLKSGTASVVCLLNNFYPREAKVQWKVDNALQSGNSQESVTEQDSKDSTYSLSSTLTLSKADYEKHKVYACEVTHQGLSSPVTKSFNRGEC | 100 % of wild-type reference | 1.33 absorbance (450 nm) | 1320 RU | 178 RU | 582 RU | 1.83 absorbance (450 nm) | 2.63 absorbance (450 nm) | 100 % of wild-type reference | 2.21 absorbance (450 nm) | 1.88 absorbance (450 nm) | 100 % of wild-type reference | 100 % of wild-type reference | 100 % of wild-type reference
anti-CD20 (rituximab) human IgG1 L234G/L235S/G236R (antibody, EU numbering; also called 2-19; 1-59; copies: 2 + 2) heavy: QVQLQQPGAELVKPGASVKMSCKASGYTFTSYNMHWVKQTPGRGLEWIGAIYPGNGDTSYNQKFKGKATLTADKSSSTAYMQLSSLTSEDSAVYYCARSTYYGGDWYFNVWGAGTTVTVSSASTKGPSVFPLAPSSKSTSGGTAALGCLVKDYFPEPVTVSWNSGALTSGVHTFPAVLQSSGLYSLSSVVTVPSSSLGTQTYICNVNHKPSNTKVDKKVEPKSCDKTHTCPPCPAPEGSRGPSVFLFPPKPKDTLMISRTPEVTCVVVDVSHEDPEVKFNWYVDGVEVHNAKTKPREEQYNSTYRVVSVLTVLHQDWLNGKEYKCKVSNKALPAPIEKTISKAKGQPREPQVYTLPPSRDELTKNQVSLTCLVKGFYPSDIAVEWESNGQPENNYKTTPPVLDSDGSFFLYSKLTVDKSRWQQGNVFSCSVMHEALHNHYTQKSLSLSPGK light: QIVLSQSPAILSASPGEKVTMTCRASSSVSYIHWFQQKPGSSPKPWIYATSNLASGVPVRFSGSGSGTSYSLTISRVEAEDAATYYCQQWTSNPPTFGGGTKLEIKRTVAAPSVFIFPPSDEQLKSGTASVVCLLNNFYPREAKVQWKVDNALQSGNSQESVTEQDSKDSTYSLSSTLTLSKADYEKHKVYACEVTHQGLSSPVTKSFNRGEC | 96 % of wild-type reference | – | – | – | – | – | 0.052 absorbance (450 nm) | 95.7 % of wild-type reference | 0.091 absorbance (450 nm) | 0.064 absorbance (450 nm) | 96.3 % of wild-type reference | 97.1 % of wild-type reference | 77.8 % of wild-type reference
anti-CD20 (rituximab) human IgG1 L234A/L235A (LALA) (antibody, EU numbering; also called 2-65; 10.16; copies: 2 + 2) heavy: not shown light: QIVLSQSPAILSASPGEKVTMTCRASSSVSYIHWFQQKPGSSPKPWIYATSNLASGVPVRFSGSGSGTSYSLTISRVEAEDAATYYCQQWTSNPPTFGGGTKLEIKRTVAAPSVFIFPPSDEQLKSGTASVVCLLNNFYPREAKVQWKVDNALQSGNSQESVTEQDSKDSTYSLSSTLTLSKADYEKHKVYACEVTHQGLSSPVTKSFNRGEC | 94.2 % of wild-type reference | – | 1180 RU | 190 RU | 505 RU | – | – | 92.9 % of wild-type reference | 0.078 absorbance (450 nm) | 0.08 absorbance (450 nm) | 93.3 % of wild-type reference | 92.8 % of wild-type reference | 70.1 % of wild-type reference
anti-CD20 (rituximab) human IgG1 N297Q (aglycosyl) (antibody, EU numbering; also called 2-67; copies: 2 + 2) heavy: not shown light: QIVLSQSPAILSASPGEKVTMTCRASSSVSYIHWFQQKPGSSPKPWIYATSNLASGVPVRFSGSGSGTSYSLTISRVEAEDAATYYCQQWTSNPPTFGGGTKLEIKRTVAAPSVFIFPPSDEQLKSGTASVVCLLNNFYPREAKVQWKVDNALQSGNSQESVTEQDSKDSTYSLSSTLTLSKADYEKHKVYACEVTHQGLSSPVTKSFNRGEC | 78.7 % of wild-type reference | – | 1010 RU | 163 RU | 421 RU | – | – | 76.6 % of wild-type reference | 0.076 absorbance (450 nm) | 0.083 absorbance (450 nm) | 77.9 % of wild-type reference | 78.4 % of wild-type reference | 34.1 % of wild-type reference
anti-CD20 (rituximab) human IgG1 L234T/L235T/G236R (antibody, EU numbering; also called 2-63; 1-165; copies: 2 + 2) heavy: QVQLQQPGAELVKPGASVKMSCKASGYTFTSYNMHWVKQTPGRGLEWIGAIYPGNGDTSYNQKFKGKATLTADKSSSTAYMQLSSLTSEDSAVYYCARSTYYGGDWYFNVWGAGTTVTVSSASTKGPSVFPLAPSSKSTSGGTAALGCLVKDYFPEPVTVSWNSGALTSGVHTFPAVLQSSGLYSLSSVVTVPSSSLGTQTYICNVNHKPSNTKVDKKVEPKSCDKTHTCPPCPAPETTRGPSVFLFPPKPKDTLMISRTPEVTCVVVDVSHEDPEVKFNWYVDGVEVHNAKTKPREEQYNSTYRVVSVLTVLHQDWLNGKEYKCKVSNKALPAPIEKTISKAKGQPREPQVYTLPPSRDELTKNQVSLTCLVKGFYPSDIAVEWESNGQPENNYKTTPPVLDSDGSFFLYSKLTVDKSRWQQGNVFSCSVMHEALHNHYTQKSLSLSPGK light: QIVLSQSPAILSASPGEKVTMTCRASSSVSYIHWFQQKPGSSPKPWIYATSNLASGVPVRFSGSGSGTSYSLTISRVEAEDAATYYCQQWTSNPPTFGGGTKLEIKRTVAAPSVFIFPPSDEQLKSGTASVVCLLNNFYPREAKVQWKVDNALQSGNSQESVTEQDSKDSTYSLSSTLTLSKADYEKHKVYACEVTHQGLSSPVTKSFNRGEC | 95.1 % of wild-type reference | – | – | – | – | – | 0.068 absorbance (450 nm) | 88.1 % of wild-type reference | 0.077 absorbance (450 nm) | 0.095 absorbance (450 nm) | 93 % of wild-type reference | 96 % of wild-type reference | 150 % of wild-type reference
anti-CD20 (rituximab) human IgG1 L234S/L235T/G236R (antibody, EU numbering; also called 2-52; 1-150; copies: 2 + 2) heavy: QVQLQQPGAELVKPGASVKMSCKASGYTFTSYNMHWVKQTPGRGLEWIGAIYPGNGDTSYNQKFKGKATLTADKSSSTAYMQLSSLTSEDSAVYYCARSTYYGGDWYFNVWGAGTTVTVSSASTKGPSVFPLAPSSKSTSGGTAALGCLVKDYFPEPVTVSWNSGALTSGVHTFPAVLQSSGLYSLSSVVTVPSSSLGTQTYICNVNHKPSNTKVDKKVEPKSCDKTHTCPPCPAPESTRGPSVFLFPPKPKDTLMISRTPEVTCVVVDVSHEDPEVKFNWYVDGVEVHNAKTKPREEQYNSTYRVVSVLTVLHQDWLNGKEYKCKVSNKALPAPIEKTISKAKGQPREPQVYTLPPSRDELTKNQVSLTCLVKGFYPSDIAVEWESNGQPENNYKTTPPVLDSDGSFFLYSKLTVDKSRWQQGNVFSCSVMHEALHNHYTQKSLSLSPGK light: QIVLSQSPAILSASPGEKVTMTCRASSSVSYIHWFQQKPGSSPKPWIYATSNLASGVPVRFSGSGSGTSYSLTISRVEAEDAATYYCQQWTSNPPTFGGGTKLEIKRTVAAPSVFIFPPSDEQLKSGTASVVCLLNNFYPREAKVQWKVDNALQSGNSQESVTEQDSKDSTYSLSSTLTLSKADYEKHKVYACEVTHQGLSSPVTKSFNRGEC | 97.9 % of wild-type reference | – | – | – | – | – | 0.047 absorbance (450 nm) | 93.7 % of wild-type reference | 0.079 absorbance (450 nm) | 0.083 absorbance (450 nm) | 96.6 % of wild-type reference | 98.3 % of wild-type reference | 98.6 % of wild-type reference

From US20230235013A1 (MABSOLVE, published 2023)
